# Measurements published in patent publication US20170037117A1 (SALK INSTITUTE FOR BIOLOGICAL STUDIES, published 2017).
# Where a chain is given by its changes, count along the chain named. Ends that are not written are not given here.
# T1: human α-CGRP K35M (19-37) (human, not fully specified)
# T1 construct: the entry already carries the mutation
# T1 peptide: SGGVVKNNFVPTNVGSMAF-NH2
# T2: human α-CGRP fragment 1-36-COOH (human, free C-terminus (not amidated))
# T2 peptide: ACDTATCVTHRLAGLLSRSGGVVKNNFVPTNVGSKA
# T3: human α-CGRP 1-37 (WT) (human, not fully specified; C-terminal amide; N-terminal biotin when captured on the chip; 125I label in the radioligand assay)
# T3 construct: also called α-human
# T3 peptide: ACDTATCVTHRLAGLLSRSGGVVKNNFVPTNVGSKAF
# T4: rat α-CGRP (1-37) (rat, not fully specified; C-terminal amide; N-terminal biotin when captured on the chip)
# T4 construct: also called rat α (1-37); α-rat
# T4 peptide: T3 peptide with A1S, D3N, N25D, K35E
# T5: rat β-CGRP (1-37) (rat, not fully specified; C-terminal amide; N-terminal biotin when captured on the chip)
# T5 construct: also called rat β (1-37)
# T5 peptide: T3 peptide with A1S, D3N, N25D
# T6: human α-CGRP K35E (19-37) (human, not fully specified)
# T6 construct: the entry already carries the mutation
# T6 peptide: SGGVVKNNFVPTNVGSEAF-NH2
# T7: human β-CGRP (1-37) (human, not fully specified; C-terminal amide; N-terminal biotin when captured on the chip)
# T7 construct: also called human β (1-37); β-CGRP (WT)
# T7 peptide: T3 peptide with D3N, V22M, N25S
# T8: human α-CGRP fragment 8-37 (human, C-terminal amide)
# T8 peptide: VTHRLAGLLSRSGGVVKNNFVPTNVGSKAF
# T9: human α-CGRP K35A (19-37) (human, not fully specified)
# T9 construct: the entry already carries the mutation
# T9 peptide: SGGVVKNNFVPTNVGSAAF-NH2
# T10: human α-CGRP fragment 26-37 (human)
# T10 peptide: NFVPTNVGSKAF-NH2
# T11: human α-CGRP P29A (19-37) (human)
# T11 construct: the entry already carries the mutation
# T11 peptide: SGGVVKNNFVATNVGSKAF-NH2
# B1: Human calcitonin (1-32) (peptide)
# peptide: CGNLSTCMLGTYTQDFNKFHTFPQTAIGVGAP-NH2
# modifications: ends and bridges not checked
# B2: Human amylin (1-37) (peptide)
# peptide: KCNTATCATQRLANFLVHSSNNFGAILSSTNVGSNTY-NH2
# modifications: ends and bridges not checked
# B3: human α-CGRP fragment 1-13-COOH (peptide)
# peptide: ACDTATCVTHRLA-OH
# modifications: ends and bridges not checked
# B4: human α-CGRP fragment 1-19-COOH (peptide)
# peptide: ACDTATCVTHRLAGLLSRS-OH
# modifications: ends and bridges not checked
# B5: Human adrenomedullin (1-52) (peptide)
# peptide: YRQSMNNFQGLRSFGCRFGTCTVQKLAHQIYQFTDKDKDNVAPRSKISPQGY-NH2
# modifications: ends and bridges not checked
# B6: antibody G1 Fab fragment (Fab, V domains shown)
# VH: EVQLVESGGGLVQPGGSLRLSCAASGFTFSNYWISWVRQAPGKGLEWVAEIRSESDASATHYAEAVKGRFTISRDNAKNSLYLQMNSLRAEDTAVYYCLAYFDYGLAIQNYWGQGTLVTVSS
# VL: EIVLTQSPATLSLSPGERATLSCKASKRVTTYVSWYQQKPGQAPRLLIYGASNRYLGIPARFSGSGSGTDFTLTISSLEPEDFAVYYCSQSYNYPYTFGQGTKLEIK
# Tests used:
# antibody G1 Fab fragment = target: B6; experiment: Biacore competition: G1 Fab 50 nM pre-incubated 1 h with 10 uM competing peptide, flowed over N-biotinylated human α-CGRP on SA chip; blocked ligand human α-CGRP
# Text: Y axis represents percentage of binding blocked by the presence of the competing peptide compared with the binding in the absence of the competing peptide.
# All these peptides are amidated at the C-terminus.
# [1] = target: T1, human α-CGRP K35M (19-37); experiment: Biacore competition, 50 nM G1 Fab + 10 uM peptide over human α-CGRP on chip
# Text: (§1) Y axis represents percentage of binding blocked by the presence of the competing peptide compared with the binding in the absence of the competing peptide. […]
# [2] = target: T2, human α-CGRP fragment 1-36-COOH; experiment: as above
# Text: as §1
# human α-CGRP 1-37 (WT) = target: T3, human α-CGRP 1-37 (WT); experiment: as above
# Text: as §1
# rat α-CGRP (1-37) = target: T4, rat α-CGRP (1-37); experiment: as above
# Text: as §1
# rat β-CGRP (1-37) = target: T5, rat β-CGRP (1-37); experiment: as above
# Text: as §1
# Human calcitonin (1-32) = target: B1; experiment: as above
# Text: as §1
# [3] = target: T6, human α-CGRP K35E (19-37); experiment: as above
# Text: as §1
# human β-CGRP (1-37) = target: T7, human β-CGRP (1-37); experiment: as above
# Text: as §1
# [4] = target: T8, human α-CGRP fragment 8-37; experiment: as above
# Text: as §1
# [5] = target: T9, human α-CGRP K35A (19-37); experiment: as above
# Text: as §1
# [6] = target: T10, human α-CGRP fragment 26-37; experiment: as above
# Text: as §1
# [7] = target: human α-CGRP fragment 19-36-COOH (human, Table 4: not C-terminally amidated (19-36-COOH); paragraph 408 says amidated at the C-terminus); experiment: as above
# Text: as §1
# [8] = target: T11, human α-CGRP P29A (19-37); experiment: as above
# Text: as §1
# Human amylin (1-37) = target: B2; experiment: as above
# Text: as §1
# [9] = target: B5; experiment: as above
# Text: as §1
# [10] = target: B3; experiment: as above
# Text: as §1
# [11] = target: B4; experiment: as above
# Text: as §1
binder,measurement,setting,value
B1,% Binding blocked,antibody G1 Fab fragment,0%
B2,% Binding blocked,antibody G1 Fab fragment,0%
B3,% Binding blocked,antibody G1 Fab fragment,0%
B4,% Binding blocked,antibody G1 Fab fragment,0%
B5,% Binding blocked,antibody G1 Fab fragment,0%
B6,percentage of binding blocked,[1],100%
same,percentage of binding blocked,[2],~40%
same,percentage of binding blocked,human α-CGRP 1-37 (WT),100%
same,percentage of binding blocked,rat α-CGRP (1-37),100%
same,percentage of binding blocked,rat β-CGRP (1-37),100%
same,binding result,Human calcitonin (1-32),no binding (tested: 10 uM peptide)
same,percentage of binding blocked,[3],100%
same,percentage of binding blocked,human β-CGRP (1-37),100%
same,percentage of binding blocked,[4],100%
same,percentage of binding blocked,[5],100%
same,percentage of binding blocked,[6],100%
same,binding result,[7],no binding (tested: 10 uM peptide)
same,percentage of binding blocked,[8],100%
same,binding result,Human amylin (1-37),no binding (tested: 10 uM peptide)
same,binding result,[9],no binding (tested: 10 uM peptide)
same,binding result,[10],no binding (tested: 10 uM peptide)
same,binding result,[11],no binding (tested: 10 uM peptide)
